Source: paper PMC10239980, “A new portable toluidine blue/aptamer complex-on-polyethyleneimine-coated gold nanoparticles-based sensor for label-free electrochemical detection of alpha-fetoprotein”

Molecular target: T1, Alpha-fetoprotein (AFP) (UniProt P02771 19-609)
T1 sequence: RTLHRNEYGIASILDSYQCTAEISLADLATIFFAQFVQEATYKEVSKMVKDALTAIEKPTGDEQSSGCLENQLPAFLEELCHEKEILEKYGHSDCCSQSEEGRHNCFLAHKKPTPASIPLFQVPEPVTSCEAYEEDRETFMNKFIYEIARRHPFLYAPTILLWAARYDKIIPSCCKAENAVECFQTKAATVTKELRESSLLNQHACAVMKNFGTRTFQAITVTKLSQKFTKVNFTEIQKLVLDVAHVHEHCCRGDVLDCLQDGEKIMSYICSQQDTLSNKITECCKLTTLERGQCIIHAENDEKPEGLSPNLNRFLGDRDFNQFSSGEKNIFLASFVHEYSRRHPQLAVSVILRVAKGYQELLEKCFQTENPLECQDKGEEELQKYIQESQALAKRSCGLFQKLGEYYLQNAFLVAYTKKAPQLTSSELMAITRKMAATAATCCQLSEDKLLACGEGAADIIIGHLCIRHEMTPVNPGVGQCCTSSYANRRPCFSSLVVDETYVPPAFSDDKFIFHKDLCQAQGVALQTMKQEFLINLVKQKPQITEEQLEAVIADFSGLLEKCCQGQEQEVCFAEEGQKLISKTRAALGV
Experiment: electrochemical aptasensor (DPV, CV, EIS); toluidine blue, BSA-blocked PEI-AuNPs electrode; 50 ng/mL AFP lowers DPV current ca. 39 to 26 uA; 10 mM sodium phosphate buffer pH 7.0, 30 min incubation at room temperature; CV in 10 mM PBS pH 7.4 with 5 mM [Fe(CN)6]3-
Conditions: protein: commercial

B1: AFP-specific aptamer (75-mer) (ssDNA)
DNA: GTGACGCTCCTAACGCTGACTCAGGTGCAGTTCTCGACTCGGTCTTGATGTGGGTCCTGTCCGTCCGAACCAATC
B1: binds.
